Drawing on paper PMC8888459, this text covers binding as percent of the WT control, percent of the control left pulled down with Yah1^GST and percent reduction of Nfs1, Isd11 and Isu1 pulled down with Yah1^GST for 3 substances.

In assay [1] the target is Yah1-GST fusion protein (S. cerevisiae) (UniProt Q12184). The assay is described as follows: pull-down; GST-tagged Yah1 bait (2.5 μM) incubated with NIA (5 μM or increasing) and/or Isu1 (7.5 μM) in buffer PD (40 mM Hepes–KOH pH 7.5, 5% glycerol, 100 mM KCl, 1 mM DTT, 10 mM MgCl2) 15 min at 25 °C; glutathione agarose 1 h at 4 °C; SDS-PAGE, InstantBlue, densitometry corrected for binding to GST; aerobic (Yah1 cluster oxidised).
Yah1-GST fusion protein (S. cerevisiae), sequence (Q12184 17-172): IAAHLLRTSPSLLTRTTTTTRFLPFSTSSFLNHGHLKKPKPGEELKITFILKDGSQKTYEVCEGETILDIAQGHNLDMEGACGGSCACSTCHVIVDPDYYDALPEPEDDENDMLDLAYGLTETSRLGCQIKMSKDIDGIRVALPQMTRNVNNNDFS

The target in assay [2] is NIA–Isu1 complex with C. thermophilum Isu1 (S. cerevisiae | E. coli (endogenous in the expression host) | C. thermophilum) (UniProt P25374). The assay is described as follows: pull-down; competition: Yah1^GST (2.5 μM) with NIA (5 μM), with or without Isu1Sc or Isu1Ct (7.5 μM), then Yfh1 WT or DE/KK added (12.5 μM or increasing concentrations); glutathione resin; densitometry, amount without Yfh1 set as 100%; buffer PD.

In assay [1], “NIA–Isu1 complex containing Nfs1(R313E, R316E, R318E), with Isu1Ct (from UniProt P25374 37-497; Q6Q560 1-94; P0A6A8 1-78)” came in with a binding as percent of the WT control of 20%.
In assay [2], “Yfh1 (frataxin) with a C-terminal polyhistidine tag (from UniProt Q07540 52-174) (natural protein)” registered a percent of the control left pulled down with Yah1^GST at 5 μM Yfh1 of 30%; a percent reduction of Nfs1, Isd11 and Isu1 pulled down with Yah1^GST at a fivefold excess of Yfh1 (12.5 μM) of 85%.
For “NIA–Isu1 complex containing Nfs1(R313A, R316A, R318A), with Isu1Ct (from UniProt P25374 37-497; Q6Q560 1-94; P0A6A8 1-78)”, the binding as percent of the WT control in assay [1] amounted to 30%.
